Test results taken from paper PMC11410943.

Tested on: Cn1c(=O)ccc2ccc(F)c(CCNC[C@H]3CN(c4cnc5c(n4)NC(=O)CO5)C(=O)O3)c21
Experiment: MATE2-K transport in HEK293 cells
Assay type: in vitro ADME, human
Conditions: other: HEK293 cells; 37.0 °C

MATE2-K (Homo sapiens)
Km: 469 µM | Vmax: 111 pmol/mg/min
